T1: NURC1 1-160 (Arabidopsis thaliana, UniProt Q9LZ65 1-160)
T1 sequence: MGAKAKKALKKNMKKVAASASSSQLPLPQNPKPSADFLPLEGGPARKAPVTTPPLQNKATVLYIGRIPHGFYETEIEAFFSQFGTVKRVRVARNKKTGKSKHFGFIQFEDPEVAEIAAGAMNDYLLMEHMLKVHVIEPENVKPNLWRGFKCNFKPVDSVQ

T2: NURC1-FL (Arabidopsis thaliana, UniProt Q9LZ65 1-222)
T2 sequence: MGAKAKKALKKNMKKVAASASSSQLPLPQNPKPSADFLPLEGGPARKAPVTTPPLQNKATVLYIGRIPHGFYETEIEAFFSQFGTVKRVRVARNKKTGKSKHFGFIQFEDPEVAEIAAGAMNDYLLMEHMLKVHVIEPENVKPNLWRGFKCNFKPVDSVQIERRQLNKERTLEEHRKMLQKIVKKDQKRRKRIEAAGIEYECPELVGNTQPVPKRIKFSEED

B1: ITS2 1-79 (stem I and II) (structured_RNA)
RNA: GGAUCGUCGUCCCUCACCAUCCUUUGCUGAUGCGGGACGGAAGCUGGUCUCCCGUGUGUUACCGCACGCGUUGGCCUAAUU
B2: ITS2 82-162 (stem III) (structured_RNA)
RNA: GGAGCCAAGGACGCCUGGAGCGUACCGACAUGCGGUGGUGAACUUGAUCCAUUACAUUUUAUCGGUCGCUCUUGUCCGGAA

Legend:
NURC1 1-160 [1] = target: T1, NURC1 1-160; test: MST; settings: MST: 10 nM labelled RNA, 20 mM Tris-HCl pH 8.0, 150 mM NaCl, 0.1 mg/ml BSA, 1 mM DTT, 0.1% Tween-20, room temperature, 5 min
NURC1-FL [2] = target: T2, NURC1-FL; test: MST; settings: MST: 10 nM labelled RNA, 20 mM Tris-HCl pH 8.0, 150 mM NaCl, 0.1 mg/ml BSA, 1 mM DTT, 0.1% Tween-20, room temperature, 5 min
[3] = tested on: NURC1 1-140 (Arabidopsis thaliana); test: MST; settings: MST: 10 nM labelled RNA, 20 mM Tris-HCl pH 8.0, 150 mM NaCl, 0.1 mg/ml BSA, 1 mM DTT, 0.1% Tween-20, room temperature, 5 min
NURC1 1-160 [4] = target: T1, NURC1 1-160; test: MST; Kd only in figure/Table S5; MST: 10 nM labelled RNA, 20 mM Tris-HCl pH 8.0, 150 mM NaCl, 0.1 mg/ml BSA, 1 mM DTT, 0.1% Tween-20, room temperature, 5 min; settings: protein: recombinant; tags: 6xHis (pET-28a) removed with thrombin; label: Cy5-UTP incorporated (Cy5-UTP/UTP 1:15)
NURC1-FL [5] = target: T2, NURC1-FL; test: as above; settings: protein: recombinant; tags: N-terminal 6xHis (pET-28a, NdeI/XhoI) removed with thrombin; label: Cy5-UTP incorporated (Cy5-UTP/UTP 1:15)

Molecule	Kd (NURC1 1-160 [1]) [nM]	Kd (NURC1-FL [2]) [nM]	Kd [3] [nM]	binding result (NURC1 1-160 [4])	binding result (NURC1-FL [5])
ITS2 FL	116	228	938		
B1				binds	binds
B2				binds	binds
